Experimental data published in publication PMC8247599.

Assays:
[1] = system: aTm1 252-334 (Drosophila melanogaster); test: EMSA
[2] = biological target: aTm1^252–334 (Drosophila melanogaster); test: ITC
[3] = biological target: GST-tagged Khc^848–941 (Drosophila) (UniProt P17210); test: SPR
Sequence of GST-tagged Khc^848–941 (Drosophila) (P17210 848-941): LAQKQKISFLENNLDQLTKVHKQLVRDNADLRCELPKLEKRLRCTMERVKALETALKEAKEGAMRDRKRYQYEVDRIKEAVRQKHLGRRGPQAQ

## UUUUUUUUUUUUUUUUUUUUUUUUU [oligo-(U25) RNA]
[1]
  Kd: > 10 µM

## aTm1^252–334 (domain or fragment)
[2]
  Kd: 10 µM
[3]
  Kd: 0.141 µM
